Data on 4 proteins can be found in ChEMBL document CHEMBL1137638, “TEM-158 (CMT-9), a new member of the CMT-type extended-spectrum beta-lactamases” (Antimicrob Agents Chemother, 2007).

As usually defined, the kcat is the number of substrate molecules converted per active site and unit of time at saturation. One may read the Km as the substrate concentration at which the rate is half of its maximum.

Bounds are passed on as bounds.

Substrate in data set [1]: CC(C)(O/N=C(\C(=O)N[C@@H]1C(=O)N2C(C(=O)[O-])=C(C[n+]3ccccc3)CS[C@H]12)c1csc(N)n1)C(=O)O
The following applies: Escherichia coli; DH5alpha CL1179.

Substrate in data set [2]: CO/N=C(\C(=O)N[C@@H]1C(=O)N2C(C(=O)O)=C(COC(C)=O)CS[C@H]12)c1csc(N)n1
Kind of data set: (§1) Activity of Escherichia coli DH5alpha beta-lactamase TEM-1 by microacidimetric method.

Substrate in data set [3]: CCN1CCN(C(=O)N[C@@H](C(=O)N[C@@H]2C(=O)N3[C@@H]2SC(C)(C)[C@@H]3C(=O)O)c2ccccc2)C(=O)C1=O
Described as §1.

Substrate in data set [4]: CC(=O)OCC1=C(C(=O)O)N2C(=O)[C@@H](NC(=O)Cc3cccs3)[C@H]2SC1
The description is as §1.

Substrate in data set [5]: CC1(C)S[C@@H]2[C@H](NC(=O)Cc3ccccc3)C(=O)N2[C@H]1C(=O)O
The data set is described as §1.

Substrate in data set [6]: CC1(C)S[C@@H]2[C@H](NC(=O)[C@H](C(=O)O)c3ccsc3)C(=O)N2[C@H]1C(=O)O
The description is as §1.

Substrate in data set [7]: CC1(C)S[C@@H]2[C@H](NC(=O)[C@H](N)c3ccc(O)cc3)C(=O)N2[C@H]1C(=O)O
The data set is described as §1.

Substrate in data set [8]: CC(C)(O/N=C(\C(=O)N[C@@H]1C(=O)N2C(C(=O)[O-])=C(C[n+]3ccccc3)CS[C@H]12)c1csc(N)n1)C(=O)O
The description is as §1.

Substrate in data set [9]: CCN1CCN(C(=O)N[C@@H](C(=O)N[C@@H]2C(=O)N3[C@@H]2SC(C)(C)[C@@H]3C(=O)O)c2ccccc2)C(=O)C1=O
The experiment in a line: (§2) Activity of Escherichia coli DH5alpha beta-lactamase TEM-158 by microacidimetric method.

Substrate in data set [10]: CC(=O)OCC1=C(C(=O)O)N2C(=O)[C@@H](NC(=O)Cc3cccs3)[C@H]2SC1
Described as §2.

Substrate in data set [11]: CC1(C)S[C@@H]2[C@H](NC(=O)Cc3ccccc3)C(=O)N2[C@H]1C(=O)O
The data set is described as §2.

Substrate in data set [12]: CC1(C)S[C@@H]2[C@H](NC(=O)[C@H](C(=O)O)c3ccsc3)C(=O)N2[C@H]1C(=O)O
Described as §2.

Substrate in data set [13]: CC1(C)S[C@@H]2[C@H](NC(=O)[C@H](N)c3ccc(O)cc3)C(=O)N2[C@H]1C(=O)O
Described as §2.

Substrate in data set [14]: CC(C)(O/N=C(\C(=O)N[C@@H]1C(=O)N2C(C(=O)[O-])=C(C[n+]3ccccc3)CS[C@H]12)c1csc(N)n1)C(=O)O
The description is as §2.

Substrate in data set [15]: CC(C)(O/N=C(\C(=O)N[C@@H]1C(=O)N2C(C(=O)[O-])=C(C[n+]3ccccc3)CS[C@H]12)c1csc(N)n1)C(=O)O
The following applies: Escherichia coli; TO799.

B1: Beta lactamase TEM-152 (Escherichia coli), Q09Q13 (protein)
chain: MSIQHFRVALIPFFAAFCLPVFAHPETLVKVKDAEDQLGARVGYIELDLNSGKILESFRPEERFPMVSTFKVLLCGAVLSRVDAGQEQLGRRIHYSQNDLVEYSPVTEKHLTDGMTVRELCSAAITMSDNTAANLLLTTIGGPKELTAFLHNMGDHVTRLDHWEPELNEAIPNDERDTTMPAAMATTLRKLLTGELLTLASRQQLIDWMEADKVAGPLLRSALPAGWFIADKSGAGKRGSRGIIAALGPDGKPSRIVVIYTTGSQATMDERDRQIAEIGASLIKHW
On to B1, for which the turnover number (kcat) in data set [1] turned out to be 40 s⁻¹.

B2: Beta-lactamase TEM (Escherichia coli), P62593 (protein)
chain: MSIQHFRVALIPFFAAFCLPVFAHPETLVKVKDAEDQLGARVGYIELDLNSGKILESFRPEERFPMMSTFKVLLCGAVLSRVDAGQEQLGRRIHYSQNDLVEYSPVTEKHLTDGMTVRELCSAAITMSDNTAANLLLTTIGGPKELTAFLHNMGDHVTRLDRWEPELNEAIPNDERDTTMPAAMATTLRKLLTGELLTLASRQQLIDWMEADKVAGPLLRSALPAGWFIADKSGAGERGSRGIIAALGPDGKPSRIVVIYTTGSQATMDERNRQIAEIGASLIKHW
B2: the kcat in [2] is < 0.1 s⁻¹; in data set [3], 1250 s⁻¹; in data set [4] it was 165 s⁻¹; in data set [5], 1500 s⁻¹; in data set [6], 135 s⁻¹; in [7], 1120 s⁻¹. In addition, the turnover number (kcat) in data set [8] is < 0.1 s⁻¹. For the same protein, the Km in data set [3] is 55 µM; in [5], 34 µM; in [6] it was 36 µM; in data set [7], 15 µM.

B3: CMT-type beta lactamase (Escherichia coli), A5HJU3 (protein)
chain: MSIQHFRVALIPFFAAFCLPVFAHPETLVKVKDAEDQLGARVGYIELDLNSGKILESFRPEERFPMLSTFKVLLCGAVLSRVDAGQEQLGRRIHYSQNDLVEYSPVTEKHLTDGMTVRELCSAAITMSDNTAANLLLTTIGGPKELTAFLHNMGDHVTRLDSWEPELNEAIPNDERDTTMPAAMATTLRKLLTGELLTLASRQQLIDWMEADKVAGPLLRSALPAGWFIADKSGAGERGSRGIIAALGPDGKPSRIVVIYTTGSQATMDERDRQIAEIGASLIKHW
As for B3, the Michaelis constant (Km) was determined as 46 µM in data set [9]; 170 µM in data set [10]; 38.1 µM in data set [11]; 143 µM in data set [12]; 24.8 µM in [13]. Further, the catalytic constant (kcat) was determined as 17.1 s⁻¹ in data set [9]; 0.26 s⁻¹ in [10]; 18.5 s⁻¹ in data set [11]; 4.2 s⁻¹ in data set [12]; 14.4 s⁻¹ in data set [13]; 1.7 s⁻¹ in [14].

B4: Beta-lactamase TEM-125 (Escherichia coli), Q6GWS8 (protein)
chain: MSIQHFRVALIPFLAAFCLPVFAHPETLVKVKDAEDQLGARVGYIELDLNSGKILESFRPEERFPMLSTFKVLLCGAVLSRVDAGQEQLGRRIHYSQNDLVEYSPVTEKHLTDGMTVRELCSAAITMSDNTAANLLLTTIGGPKELTAFLHNMGDHVTRLDSREPELNEAIPNDERDTTMPAAMATTLRKLLTGELLTLASRQQLIDWMEADKVAGPLLRSALPAGWFIADKSGAGERGSRGIIAALGPDGKPSRIVVIYTTGSQATMDERDRQIAEIGASLIKHW
With B4, in data set [15], the turnover number (kcat) came to 3.7 s⁻¹.
